The text below walks through data of patent US10100317B2, “Compositions of matter that reduce pain, shock, and inflammation by blocking linoleic acid metabolites and uses thereof” (Board of Regents of the University of Texas System, priority 2012, dated 2018).

Entries after “also recorded” stand apart in the source; their conditions may differ.

The subject of data set [1] is TRPV1 in the spinal cord. The note with it: completely reversible by a TRPV1 antagonist; cited from earlier work.
The subject of data set [2] is LA-evoked nofifensive behaviors. In words: LA-evoked nocifensive behaviors after capsazepine pretreatment (FIG. 3B). It counts as in vivo. The note with it: pretreatment before linoleic acid.
The test system of data set [3] is normal rats. Put plainly: Spontaneous nocifensive behaviors after linoleic acid injection in normal rats (FIG. 3A). It counts as in vivo, rat.
Data set [4] has as its system TRPV1 knock-out (KO) mice. Put plainly: LA-triggered nocifensive behaviors in TRPV1 knock-out versus wild type mice (FIG. 3C). The class given is in vivo. The note with it: TRPV1 KO mice compared to wild type mice.
Data set [5] is described as follows: SPR analysis (Biacore X100) with immobilized 13(S)-HODE-Biotin. The class given is binding. The note with it: CM5 chip, 1×HBS-EP+ buffer, aptamer 20-80 μM, contact 90 s, dissociation 600 s; read-out: dissociation constant, KD. The protocol: SPR Analysis of H9-3/19F Aptamer and B13-9R Aptamer with 13(S)-HODE-Biotin
13(S)-HODE-Biotin was immobilized on a CM5 sensor chip utilizing biotin-streptavidin chemistry. Various concentrations of H9-3/19F aptamer (SEQ ID. NO. 84) were flowed through the Biacore X100 with 1×HBS-EP+ running buffer at a flow rate of 30 μl/min and allowed a contact time with the surface-bound ligand of 90 seconds, followed by a dissociation time set at 600 seconds. The following concentrations of aptamer were used: 20 μM, 40 μM, 60 μM and 80 μM.
13(S)-HODE-Biotin was immobilized on a CM5 sensor chip utilizing biotin-streptavidin chemistry. Various concentrations of B13-9R aptamer (SEQ ID. NO. 67) were flowed through the Biacore X100 with 1×HBS-EP+ running buffer at a flow rate of 30 μl/min and allowed a contact time with the surface-bound ligand of 90 seconds, followed by a dissociation time set at 600 seconds. The following concentrations of aptamer were used: 20 μM, 40 μM, 60 μM and 80 μM.
(In general: SPR reads the build-up and loss of mass on a sensor chip optically.)

The nature of data set [6]: ELASA (ELISA-like) plate screening of aptamers against 13-HODE / biotinylated 13-HODE. It counts as binding. Particulars: for Trial 1 Abs 405 nm: ELASA trial 1; for Trial 1 Abs 405 nm / Trial 2 Abs 405 nm / Trial 3 Abs 405 nm: 13-HODE / biotinylated 13-HODE aptamers, absorbance 10-15 minutes after final addition of ABTS substrate; for Trial 2 Abs 405 nm: ELASA trial 2; for Trial 3 Abs 405 nm: ELASA trial 3; for Affinity ranking in ELASA plate screening: biotinylated 13-HODE target, three trials, done in triplicate. The protocol:
(§1) To evaluate, screen, and rank aptamers based on affinity against their cognate HODE isomers, two different approaches are used. The first involved the use of Corning Costar Universal Bind™ microplates (No. 2503) for ultraviolet (UV) immobilization of 200 ng/well of unlabeled HODES to the plate's surface (Bruno et al., 2008 and 2009) using 0.2 Joules/cm^2 in a UV crosslinker oven for 15 minutes. The second involved streptavidin (SAv)-coated microwell strips (Nunc, Inc. Catalogue #436020) in which 400 ng of the biotinylated-13-HODE are immobilized for 30 minutes at RT with gentle mixing in 200 μl of PBS per well.
(§2) Plates or wells are decanted and washed three times in 250 μl of 1×BB. Each of the different 5′-biotinylated aptamers raised against the target is dissolved in 1×BB at 1.00 nmole per 100 microliters and applied to their corresponding plate wells for 1 hour at RT with gentle mixing on an orbital shaker. The plate is decanted and washed three times in 250 μl of 1×BB for at least 5 minutes per wash with gentle mixing. One hundred μl of a 1:2,000 dilution of SAv-peroxidase from a 5 mg/ml stock solution in 1×BB is added per well for 30 minutes at RT with gentle mixing. The plate is decanted and washed three times with 250 μl of 1×BB per well as before.
(§3) One hundred μl of ABTS (2,2′-azino-bis(3-ethylbenzthiazoline-6-sulphonic acid) substrate with stabilized hydrogen peroxide (Kirkegaard Perry Laboratories, Inc., Gaithersburg, Md.) is added per well for 10 minute at RT. Various deletion control wells without biotinylated aptamers or SAv-peroxidase are set up and evaluated to establish background levels as well. Finally absorbance is quantified using a microplate reader with 405 nm optical filter.
(§4) These aptamers were: H9-3/19F and B13-9R for the 9-HODE and biotinylated 13-HODE targets respectively and they proceeded into animal testing.
For orientation: An ELISA detects its analyte on a solid surface through an enzyme-linked reagent.

Data set [7] can be described thus: ELASA (ELISA-like) plate screening of aptamers against 9-HODE. Particulars: for Trial 1 Abs 405 nm: ELASA trial 1; for Trial 3 Abs 405 nm: ELASA trial 3; for Affinity ranking in ELASA plate screening: 9-HODE target, three trials, done in triplicate. It counts as binding. Here is the method:
as §1, §2, §3, §4

Data set [8] concerns rat hindpaws inflamed with complete Freund's adjuvant (CFA). Put plainly: Pain responses in rat hindpaws inflamed with complete Freund's adjuvant (CFA). It counts as in vivo. Particulars: local (hindpaw) injection, FIG. 2.
Data set [9] deals with cultured capsaicin-sensitive neurons. In words: Patch clamp electrophysiology of cultured capsaicin-sensitive neurons. The class given is cell-based. On the technique in general: The patch-clamp technique gives a direct electrical read-out from membranes.
Setting [10] is: 9-HODE aptamers, absorbance 10-15 minutes after final addition of ABTS substrate.

Take “9-hydroxyoctadecadienoic acid [Aptamer 9-HODE]”: the tactile allodynia result in data set [1] is reported as “results in tactile allodynia”.

In the case of `COc1cc(CNC(=O)CCCC/C=C/C(C)C)ccc1O` [capsaicin], the tactile allodynia result in data set [1] is recorded as “results in tactile allodynia”.

For `Oc1cc2c(cc1O)CN(C(=S)NCCc1ccc(Cl)cc1)CCC2` [capsasepine], the LA-evoked nocifensive behaviors result in data set [2] is given as “significantly reduced”.

As to `CCCCC/C=C\C/C=C\CCCCCCCC(=O)O` [linoleic acid, cis, cis-9,12-octadecadienoic acid], in data set [3], the spontaneous nocifensive behaviors entry was “does not produce a significant increase”. Also, the LA-triggered nocifensive behaviors entry in data set [4] was “significantly reduced”.

B1: 5′-ATCCGTCACACCTGCTCTGGGGGGGGAAGCTCGTGGTATAAGGGGCGTTGAGGTGGTGTTGGCTCCCGTAT-3′ (nucleic acid)
DNA: ATCCGTCACACCTGCTCTGGGGGGGGAAGCTCGTGGTATAAGGGGCGTTGAGGTGGTGTTGGCTCCCGTAT
modifications: DNA, backbone not given here
notes: DNA aptamer for the OLAM 13-HODE
Turning to B1, the dissociation constant (Kd) (in general, the equilibrium constant for the complex coming apart) in [5] came out at 2.56 nM. Also, in [6], the “Trial 1 Abs 405 nm” value is on record as 1.549, the “Trial 2 Abs 405 nm” value is recorded as 1.885, the “Trial 3 Abs 405 nm” value turned out to be 1.964 and the “Affinity ranking in ELASA plate screening” value (from here on “Affinity ranking”) was “highest affinity; also recorded: top two to three strongest absorbance signals”. The “Affinity ranking” value in [6] (listed as SEQ ID NO. 67) was “highest binding affinity”.

B2: H9-3/19R: DNA aptamer clone, 9-HODE target (nucleic acid)
DNA: ATCCGTCACACCTGCTCTGCATGGCCATCCAGATTAGTCCTGCAGCACATTCGGTGGTGTTGGCTCCCGTAT
modifications: DNA, backbone not given here
notes: DNA aptamer clone, 9-HODE target
In the case of B2, the “Trial 1 Abs 405 nm” value in data set [7] (setting [10]) came out at 1.571.

B3: B13-12R: DNA aptamer clone, biotinylated 13-HODE target (nucleic acid)
DNA: ATCCGTCACACCTGCTCTGCCATTGAATCTCATATGGTGCTCGAGTAGCTGGTGTGGTGTTGGCTCCCGTAT
modifications: DNA, backbone not given here
notes: DNA aptamer clone, biotinylated 13-HODE target
For the molecule B3, in data set [6], the “Trial 3 Abs 405 nm” value worked out at 1.310.

B4: B13-8F: DNA aptamer clone, biotinylated 13-HODE target (nucleic acid)
DNA: ATACGGGAGCCAACACCAGCGAAGCCAAAACTGGTCGGGCCGACGGGATTCGTTAGAGCAGGTGTGACGGAT
modifications: DNA, backbone not given here
notes: as for B3
B4: the “Trial 1 Abs 405 nm” value in data set [6] amounted to 1.490.

B5: B13-10bR: DNA aptamer clone, biotinylated 13-HODE target (nucleic acid)
DNA: ATCCGTCACACCTGCTCTGCGGACAGCGGTTGCGCATATATCGTGGCAGTGGGCTGGTGTTGGCTCCCGTAT
modifications: DNA, backbone not given here
notes: as for B3
Take B5: the “Trial 2 Abs 405 nm” value in data set [6] turned out to be 1.214.

B6: H13-12F: DNA aptamer clone, 13-HODE target (nucleic acid)
DNA: ATACGGGAGCCAACACCATGTTACATCAACTGCATGAAGACGAGGAATGTGATGAGAGCAGGTGTGACGGAT
modifications: DNA, backbone not given here
notes: DNA aptamer clone, 13-HODE target
For the molecule B6, the “Trial 1 Abs 405 nm” value in data set [6] is listed as 1.442.

B7: B13-1a/4/6/15/17/19/20R: DNA aptamer clone, biotinylated 13-HODE target (nucleic acid)
DNA: ATCCGTCACACCTGCTCTCGAGTATAAGGGGGAGTTGCATAACGCTAAACTTTGTGGTGTTGGCTCCCGTAT
modifications: DNA, backbone not given here
notes: as for B3
As for B7, the “Trial 2 Abs 405 nm” value in data set [6] amounted to 1.595.

B8: H13-1/2-4/6-8/14-18/20F: DNA aptamer clone, 13-HODE target (nucleic acid)
DNA: ATACGGGAGCCAACACCACAAAGTTTAGCGTTATGCAACTCCCCCTTATACTCGAGAGCAGGTGTGACGGAT
modifications: DNA, backbone not given here
notes: as for B6
For the molecule B8, in data set [6], the “Trial 2 Abs 405 nm” value is 1.199 and the “Trial 3 Abs 405 nm” value is 1.387.

B9: H9-2/4-6/8a/9b/14/20F: DNA aptamer clone, 9-HODE target (nucleic acid)
DNA: ATACGGGAGCCAACACCACAAAGTTTAGCGTTATGCAACTCCCCCTTATACTCGAGAGCAGGTGTGACGGAT
modifications: DNA, backbone not given here
notes: as for B2
As to B9, the “Trial 3 Abs 405 nm” value in data set [7] (setting [10]) was determined as 1.249.

B10: 5′-ATACGGGAGCCAACACCACCGAATGTGCTGCAGGACTAATCTGGATGGCCATGCAGAGCAGGTGTGACGGAT-3′ (nucleic acid)
DNA: ATACGGGAGCCAACACCACCGAATGTGCTGCAGGACTAATCTGGATGGCCATGCAGAGCAGGTGTGACGGAT
modifications: DNA, backbone not given here
notes: DNA aptamer for the OLAM 9-HODE
Regarding B10, in [8], the “pain responses to mechanical stimuli” value is “significant reduction in pain responses” and the “pain responses to thermal stimuli” value was “significant reduction in pain responses”. For the same molecule, in data set [5], the Kd amounted to 0.129 nM. For the same molecule, the “Affinity ranking” value in [7] is listed as “highest affinity; also recorded: top two to three strongest absorbance signals”. Moreover, the “Affinity ranking” value in [7] (listed as SEQ ID NO. 84) was “highest binding affinity”. In data set [7] (setting [10]), the “Trial 1 Abs 405 nm” value is 2.081 and the “Trial 3 Abs 405 nm” value is reported as 1.640. For the same molecule, in data set [7] (ELASA trial 2, 9-HODE aptamers, absorbance 10-15 minutes after final addition of ABTS substrate), the “Trial 2 Abs 405 nm” value was found to be 1.648. Moreover, in data set [9] (capsaicin itself / TRPV1 directly), the “block of capsaicin response (selectivity)” value was “does not block capsaicin itself”. The “activation of cultured capsaicin-sensitive neurons” value in data set [9] (pre-treatment with aptamer, 9-HODE response, preliminary data, FIG. 1) was “blocks activation”.
